According to patent US20220218659:

Target: Human ACLY, His-tagged, bacterially expressed and purified recombinant full length protein (UniProt P53396)
UniProt P53396, sequence (P53396 whole entry): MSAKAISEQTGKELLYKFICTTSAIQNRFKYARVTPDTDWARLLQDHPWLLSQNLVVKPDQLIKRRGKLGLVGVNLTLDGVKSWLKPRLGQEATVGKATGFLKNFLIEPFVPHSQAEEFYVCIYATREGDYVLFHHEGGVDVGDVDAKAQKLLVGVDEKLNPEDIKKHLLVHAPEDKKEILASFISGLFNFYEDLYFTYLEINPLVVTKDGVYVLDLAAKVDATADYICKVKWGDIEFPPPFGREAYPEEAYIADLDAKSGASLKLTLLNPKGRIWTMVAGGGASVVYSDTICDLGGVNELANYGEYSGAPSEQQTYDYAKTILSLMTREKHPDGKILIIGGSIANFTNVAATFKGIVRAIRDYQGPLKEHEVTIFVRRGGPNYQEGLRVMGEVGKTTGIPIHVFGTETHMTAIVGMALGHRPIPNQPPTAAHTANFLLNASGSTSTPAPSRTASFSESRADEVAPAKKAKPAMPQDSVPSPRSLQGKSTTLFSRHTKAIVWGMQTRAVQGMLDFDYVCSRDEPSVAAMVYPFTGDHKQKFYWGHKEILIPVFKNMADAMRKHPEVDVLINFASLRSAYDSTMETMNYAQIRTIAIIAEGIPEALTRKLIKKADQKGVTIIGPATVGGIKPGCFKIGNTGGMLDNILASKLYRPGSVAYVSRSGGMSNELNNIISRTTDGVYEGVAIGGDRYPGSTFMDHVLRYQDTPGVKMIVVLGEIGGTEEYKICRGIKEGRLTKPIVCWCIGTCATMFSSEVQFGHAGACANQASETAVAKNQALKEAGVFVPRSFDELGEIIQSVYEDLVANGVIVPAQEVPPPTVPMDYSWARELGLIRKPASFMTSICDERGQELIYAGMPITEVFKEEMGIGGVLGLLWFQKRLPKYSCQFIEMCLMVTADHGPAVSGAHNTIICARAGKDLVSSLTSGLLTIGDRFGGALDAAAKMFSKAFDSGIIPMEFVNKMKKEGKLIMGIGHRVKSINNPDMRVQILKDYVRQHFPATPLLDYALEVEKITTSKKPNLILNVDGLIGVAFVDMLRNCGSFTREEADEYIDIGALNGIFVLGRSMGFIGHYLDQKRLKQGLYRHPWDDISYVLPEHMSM

Active recombinant Src kinase
ACLY tyrosine residues phosphorylated (phosphoproteomics): The three ACLY tyrosine residues, Y682, Y252, Y227, were common for Lyn and Src
